The source of these data is IntAct's records for PubMed 15546919.

B1: Arf-GAP with Rho-GAP domain, ANK repeat and PH domain-containing protein 3 (Mus musculus), Q8R5G7 (parent)
chain: MAAPQDLDIAVWLALVHLEQYADTFRRHGLATAGAAQHLGHEELRHLGISATGHRKRILRLLRAGSAEGFLDSHLDNTMEPTPSPAPDAQPPKPVPKPRTVFGLSNPATAQRPGLSPIFWDPEVSRNSECTQRSSPLLPSSSEQPSVPNTMEMMPNAIYFGLDLRGRAQAAQDVTPDSSQATVPTPAFRPTTGTVHIMDPGCLYYGVQPVGIPGASDRRDGRGVCQERAEHRQDLETREDAGYASLELPGDSILSLPTQDAETSDDLISPYASFSSTADRPVPLLSGWLDKLSPQGNYVFQRRFVQFNGRSLMYFGSDKDPFPKGVIPLTAIEMTRSSKDNKFQVITGQRVFVFRTESEAQRDLWCSTLQSCLKEQRLLGHPRPPHPPRPLRTGTLELRGHKAKVFAALIPGELALYKSEQAFSLGIGICFIELQGCSVRETKSRSFDLLTPHRCFSFTAESGGARQSWAAALQEAVTETLSDYEVAEKVWSNPANRHCADCRASRPDWAAVNLGVVICKQCAGQHRALGSGISKVQSLKLDTSVWSNEIVQLFIVLGNDRANCFWAGALPPGEGLHPDSAPGPRGEFISRKYKLGLFRKPHPRHPDHSQLLQALCAAMAGPNLLKNMAQLLCVETSEGEEPLSPSALNGSLLSLLPSDSPGVYNEVVVPATYRGFLYCGSISNKAGAPPLRRGRDAPPRLWCVLGAALEMFASESSPEPLSLLQPQDIVCLGVSPPPADPGDLDRFPFSFELILTGGRIQHFATDGADSLEAWISAVGKWFSPLSCHQLLGPGLLRMGRLWLRSPSHAGLAPGLWLSGFGLLRGDHLFLCPAPGPGPPAPEDMVHLRRLQEISVVSAADTPDKKEHLVLVETGRTLYLQGEGRLDFAAWNTAIGGAAGGGGTGLQEQQMSRGDIPIIVDACISFVTQHGLRLEGVYRKGGARARSLRLLAEFRRDARSVKLRPREHFVEDVTDTLKRFFRELDDPVTSARLLPRWREAAELSQKNQRLEKYKEVISCLPRVNRRTLATLIGHLYRVQKCASLNQMCTRNLALLFAPSVFQTDGRGEHEVRVLQELIDGYISVFDIDSDQAAQIDLEVSLITTWKDVQLSQAGDLIMEVYIEQQLPDNCVTLKVSPTLTAEELTNQVLEMRGAASGTDLWVTFEILEHGELERPLHPKEKVLEQALQWCQLPEPCSASLLLRKVSMAHAGCLFTGVRRESPRVGLLRCREEPPRLLGNRFQERFFLVRGRCLLLLKEKKSSKPEREWSLEGAKVYLGIRKKLKPPTLWGFTLILEKMHLCLSCMDEEEMWDWTTSILKAQHDDQQSVVLRRRSSSDLARQKFGTMPLLPIRGDDSGATLLSANQTLRRLHNRRTLSMFFPMKSPQGSVEEQDELEEPVYEEPVYEEVGAFPELTKDTTFSSTWEWSAKSDPSLTSQRSFDQPPLSKASMLGHEERIPDPPPGPPSKSSSQARGSLEEQLLQELNNLILRKGEPASCPESSSQPTSPQAPSPTSLPTPTPSLPTQPPCTSNPPSSQPLT

This assay covers variants of B1. As to conditions: with src_human SRC.
As to Y1399F;Y1404F, the “effect of a mutation on the interaction” value is listed as “decreasing interaction”.
